Source: patent US20240058467A1 (SUTRO BIOPHARMA, published 2024)

B1: Conjugate 10: D04-Y180/F404/K42/E161-LP4 (antibody, human IgG1, kappa)
heavy: MEVQLVESGGGLVQPGGSLRLSCAASGFNISDYDIHWVRQAPGKGLEWVGGIDPADGSTDYADSVKGRFTISADTSKNTAYLQMNSLRAEDTAVYYCARDYGVYDYWGQGTLVTVSSASTKGPSVFPLAPSSKSTSGGTAALGCLVKDYFPEPVTVSWNSGALTSGVHTFPAVLQSSGLSLSSVVTVPSSSLGTQTYICNVNHKPSNTKVDKKVEPKSCDKTHTCPPCPAPELLGGPSVFLFPPKPKDTLMISRTPEVTCVVVDVSHEDPEVKFNWYVDGVEVHNAKTKPREEQYNSTYRVVSVLTVLHQDWLNGKEYKCKVSNKALPAPIEKTISKAKGQPREPQVYTLPPSREEMTKNQVSLTCLVKGFYPSDIAVEWESNGQPENNYKTTPPVLDSDGSFLYSKLTVDKSRWQQGNVFSCSVMHEALHNHYTQKSLSLSPGK
light: MDIQMTQSPSSLSASVGDRVTITCRASQDVNTAVAWYQQKPGAPKLLIYSASFLYSGVPSRFSGSRSGTDFTLTISSLQPEDFATYYCQQHYTTPPTFGQGTKVEIKRTVAAPSVFIFPPSDEQLKSGTASVVCLLNNFYPREAKVQWKVDNALQSGNSQSVTEQDSKDSTYSLSSTLTLSKADYEKHKVYACEVTHQGLSSPVTKSFNRGEC
modifications: pAMF at K42 and E161 (printed * in the sequence), linked to LP4; pAMF at Y180 and F404 (printed * in the sequence), linked to LP4
B2: Conjugate 4: D04-Y180/F404/K42/E161-LP1 (antibody, human IgG1, kappa)
heavy: B1 heavy
light: B1 light
modifications: pAMF at K42 and E161 (printed * in the sequence), linked to LP1; pAMF at Y180 and F404 (printed * in the sequence), linked to LP1
B3: Conjugate 9: D04-Y180/F404/K42/E161-LP3 (antibody, human IgG1, kappa)
heavy: B1 heavy
light: B1 light
modifications: pAMF at K42 and E161 (printed * in the sequence), linked to LP3; pAMF at Y180 and F404 (printed * in the sequence), linked to LP3
B4: Conjugate 4 (2188-D04-Y180/F404/K42/E161-LP1) (antibody, human IgG1, kappa)
heavy: B1 heavy
light: B1 light
modifications: pAMF in place of K42 and E161, printed '*', conjugated to LP1; pAMF in place of Y180 and F404 (EU), printed '*', conjugated to LP1
B5: Conjugate 7 (2188-D04-Y180/F404/K42/E161-LP10) (antibody, human IgG1, kappa)
heavy: B1 heavy
light: B1 light
modifications: pAMF in place of K42 and E161, printed '*', conjugated to LP10; pAMF in place of Y180 and F404 (EU), printed '*', conjugated to LP10
B6: Conjugate 36: D04-Y180F404/K42/E161-LP20 (antibody, human IgG1, kappa)
heavy: B1 heavy
light: B1 light
modifications: pAMF at K42 and E161 (printed * in the sequence), linked to LP20; pAMF at Y180 and F404 (printed * in the sequence), linked to LP20
B7: Conjugate 35: D04-Y180F404/K42/E161-LP19 (antibody, human IgG1, kappa)
heavy: B1 heavy
light: B1 light
modifications: pAMF at K42 and E161 (printed * in the sequence), linked to LP19; pAMF at Y180 and F404 (printed * in the sequence), linked to LP19
B8: Conjugate 32: D04-Y180F404/K42/E161-LP16 (antibody, human IgG1, kappa)
heavy: B1 heavy
light: B1 light
modifications: pAMF at K42 and E161 (printed * in the sequence), linked to LP16; pAMF at Y180 and F404 (printed * in the sequence), linked to LP16
B9: Conjugate 34: D04-Y180F404/K42/E161-LP18 (antibody, human IgG1, kappa)
heavy: B1 heavy
light: B1 light
modifications: pAMF at K42 and E161 (printed * in the sequence), linked to LP18; pAMF at Y180 and F404 (printed * in the sequence), linked to LP18
B10: Conjugate 31: D04-Y180F404/K42/E161-LP15 (antibody, human IgG1, kappa)
heavy: B1 heavy
light: B1 light
modifications: pAMF at K42 and E161 (printed * in the sequence), linked to LP15; pAMF at Y180 and F404 (printed * in the sequence), linked to LP15
B11: Conjugate 33: D04-Y180F404/K42/E161-LP17 (antibody, human IgG1, kappa)
heavy: B1 heavy
light: B1 light
modifications: pAMF at K42 and E161 (printed * in the sequence), linked to LP17; pAMF at Y180 and F404 (printed * in the sequence), linked to LP17
B12: Conjugate 38: D04-Y180F404/K42/E161-LP23 (antibody, human IgG1, kappa)
heavy: B1 heavy
light: B1 light
modifications: pAMF at K42 and E161 (printed * in the sequence), linked to LP23; pAMF at Y180 and F404 (printed * in the sequence), linked to LP23
B13: Conjugate 40: D04-Y180F404/K42/E161-LP21 (antibody, human IgG1, kappa)
heavy: B1 heavy
light: B1 light
modifications: pAMF at K42 and E161 (printed * in the sequence), linked to LP21; pAMF at Y180 and F404 (printed * in the sequence), linked to LP21
B14: Conjugate 39: D04-Y180F404/K42/E161-LP22 (antibody, human IgG1, kappa)
heavy: B1 heavy
light: B1 light
modifications: pAMF at K42 and E161 (printed * in the sequence), linked to LP22; pAMF at Y180 and F404 (printed * in the sequence), linked to LP22
B15: Conjugate 30: D04-Y180F404/K42/E161-LP14 (antibody, human IgG1, kappa)
heavy: B1 heavy
light: B1 light
modifications: pAMF at K42 and E161 (printed * in the sequence), linked to LP14; pAMF at Y180 and F404 (printed * in the sequence), linked to LP14
B16: Conjugate 11: D04-Y180/F404/K42/E161-LP7 (antibody, human IgG1, kappa)
heavy: B1 heavy
light: B1 light
modifications: pAMF at K42 and E161 (printed * in the sequence), linked to LP7; pAMF at Y180 and F404 (printed * in the sequence), linked to LP7
B17: Conjugate 14: D04-Y180/F404/K42/E161-LP12 (antibody, human IgG1, kappa)
heavy: B1 heavy
light: B1 light
modifications: pAMF at K42 and E161 (printed * in the sequence), linked to LP12; pAMF at Y180 and F404 (printed * in the sequence), linked to LP12
B18: Conjugate 13: D04-Y180/F404/K42/E161-LP6 (antibody, human IgG1, kappa)
heavy: B1 heavy
light: B1 light
modifications: pAMF at K42 and E161 (printed * in the sequence), linked to LP6; pAMF at Y180 and F404 (printed * in the sequence), linked to LP6
B19: Conjugate 15: D04-Y180/F404/K42/E161-LP13 (antibody, human IgG1, kappa)
heavy: B1 heavy
light: B1 light
modifications: pAMF at K42 and E161 (printed * in the sequence), linked to LP13; pAMF at Y180 and F404 (printed * in the sequence), linked to LP13
B20: Conjugate 12: D04-Y180/F404/K42/E161-LP5 (antibody, human IgG1, kappa)
heavy: B1 heavy
light: B1 light
modifications: pAMF at K42 and E161 (printed * in the sequence), linked to LP5; pAMF at Y180 and F404 (printed * in the sequence), linked to LP5
B21: Conjugate 8: D04-Y180/F404/K42/E161-LP2 (antibody, human IgG1, kappa)
heavy: B1 heavy
light: B1 light
modifications: pAMF at K42 and E161 (printed * in the sequence), linked to LP2; pAMF at Y180 and F404 (printed * in the sequence), linked to LP2
B22: Conjugate 16: D04-Y180/F404/K42/E161-LP34 (antibody, human IgG1, kappa)
heavy: B1 heavy
light: B1 light
modifications: pAMF at K42 and E161 (printed * in the sequence), linked to LP34; pAMF at Y180 and F404 (printed * in the sequence), linked to LP34

Molecular target: T1, ROR1 antigen expressed on ROR1 positive Ntera-2 cells (UniProt Q01973 30-937)
Assay: cell-based or functional assay

| Binder | NTERA-2 cell killing EC50 [pM] | NTERA-2 cell killing Span (%) |
| --- | --- | --- |
| B1 | 19 | 86 |
| B2 | 67 | 60 |

Molecular target: T1, ROR1 antigen expressed on ROR1 positive …
Assay: cell-based or functional assay
Remark: another data set of the same source

| Binder | NTERA-2 cell killing EC50 [pM] | NTERA-2 cell killing Span (%) |
| --- | --- | --- |
| B1 | 3 | 96 |
| B3 | 119 | 63 |

Molecular target: human ROR1 (hROR1) (human, UniProt Q01973 30-937)
Assay: cell-based or functional assay

| Binder | NTERA-2 cell killing EC50 [pM] | NTERA-2 cell killing Span [%] |
| --- | --- | --- |
| B4 | 22 | 63 |
| B5 | 48 | 94 |

Molecular target: T1, ROR1 antigen expressed on ROR1 positive …
Assay: cell-based or functional assay
Remark: another data set of the same source

| Binder | NTERA-2 cell killing EC50 [pM] | NTERA-2 cell killing Span (%) |
| --- | --- | --- |
| B6 | 222 | 72 |
| B7 | 236 | 77 |
| B8 | 23 | 86 |
| B9 | 373 | 73 |
| B1 | 13 | 89 |
| B2 | 50 | 65 |
| B10 | 18 | 87 |
| B11 | 19 | 87 |
| B12 | 108 | 64 |
| B13 | 76 | 68 |
| B14 | 215 | 54 |
| B15 | 20 | 88 |

Molecular target: T1, ROR1 antigen expressed on ROR1 positive …
Assay: cell-based or functional assay
Remark: another data set of the same source

| Binder | NTERA-2 cell killing EC50 [pM] | NTERA-2 cell killing Span (%) |
| --- | --- | --- |
| B16 | > 10000 | < 10 |
| B17 | 36 | 56 |
| B18 | 28 | 38 |
| B1 | 4 | 77 |
| B19 | 72 | – |
| B2 | 23 | 58 |
| B20 | – | 94 |
| B3 | 27 | 94 |
| B21 | > 10000 | < 10 |
| B22 | > 10000 | < 10 |
